From paper PMC9249852, “Transcription factor paralogs orchestrate alternative gene regulatory networks by context-dependent cooperation with multiple cofactors” come the findings set out here.

Common to all, as to conditions: protein: recombinant;recombinant; tags: N-terminal 6xHis (pQE30) and EGFP with TEV linker; C-terminal FLAG;N-terminal T7; C-terminal 6xHis; copies: 1;1; label: 5' biotin on strand 2 (SR1 primer); blunt
Series [1] deals with T1, EGFP-Scr-FLAG;T7-Dll-His (Drosophila melanogaster?;Drosophila …, UniProt P09077;P20009 1-417;1-327, |). Nature of the series: biotin-DNA pull-down, anti-FLAG western; Dll enhances Scr binding; Dll on DNA not probed; Pull-down in 1 ml: 500 ul protein in dialysis buffer (20 mM HEPES pH 8.0, 200 mM NaCl, 10% glycerol, 2 mM MgCl2, 0.05% Tween-20) + 500 ul probe mix with 200 ul.

For series [2], the target named is T1, EGFP-Scr-FLAG;T7-Dll-His. Nature of the series: biotin-DNA pull-down, anti-FLAG western; Dll increases Scr binding, concentration-dependent; Dll on DNA not probed; Pull-down in 1 ml: 500 ul protein in dialysis buffer (20 mM HEPES pH 8.0, 200 mM NaCl, 10% glycerol, 2 mM MgCl2, 0.05% Tween-20) + 500 ul probe mix with 200 ul.
The target of series [3] is T1, EGFP-Scr-FLAG;T7-Dll-His. Nature of the series: biotin-DNA pull-down, anti-FLAG western; Dll assists Scr binding; Dll on DNA not probed; Pull-down in 1 ml: 500 ul protein in dialysis buffer (20 mM HEPES pH 8.0, 200 mM NaCl, 10% glycerol, 2 mM MgCl2, 0.05% Tween-20) + 500 ul probe mix with 200 ul.

T1 sequence (P09077 whole entry, chain 1 of 2): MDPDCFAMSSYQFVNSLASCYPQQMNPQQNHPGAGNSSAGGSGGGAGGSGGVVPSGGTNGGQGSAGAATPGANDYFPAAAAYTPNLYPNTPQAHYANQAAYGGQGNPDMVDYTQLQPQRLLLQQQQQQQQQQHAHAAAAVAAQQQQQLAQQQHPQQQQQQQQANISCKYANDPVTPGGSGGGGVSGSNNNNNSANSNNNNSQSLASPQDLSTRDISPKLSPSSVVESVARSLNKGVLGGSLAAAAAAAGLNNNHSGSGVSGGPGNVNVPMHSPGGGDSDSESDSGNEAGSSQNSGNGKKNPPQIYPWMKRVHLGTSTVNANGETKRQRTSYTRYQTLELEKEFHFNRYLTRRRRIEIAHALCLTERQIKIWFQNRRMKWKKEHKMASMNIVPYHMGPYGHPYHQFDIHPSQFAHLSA
T1 sequence (P20009 whole entry, chain 2 of 2): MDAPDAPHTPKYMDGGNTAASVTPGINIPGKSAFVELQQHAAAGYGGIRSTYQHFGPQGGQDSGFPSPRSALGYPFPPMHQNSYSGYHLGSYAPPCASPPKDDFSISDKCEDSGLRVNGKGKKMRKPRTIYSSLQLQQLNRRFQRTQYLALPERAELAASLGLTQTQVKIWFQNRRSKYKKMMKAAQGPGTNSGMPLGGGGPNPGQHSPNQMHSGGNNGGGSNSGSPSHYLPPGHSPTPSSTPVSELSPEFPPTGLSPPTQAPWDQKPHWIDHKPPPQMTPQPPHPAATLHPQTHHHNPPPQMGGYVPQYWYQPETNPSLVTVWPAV

B1: probe-dsx (dsx-1) (dsDNA)
DNA 1: AATATTTTATAAATTTAATAAATTGAGTCGTATGCCGTCTTCTGCTTG
DNA 2: CAAGCAGAAGACGGCATACGACTCAATTTATTAAATTTATAAAATATT
B1: in series [1], the binding result was “binds”.

B2: probe-Scr-Dll consensus (dsDNA)
DNA 1: TGGGCCTGGTAATTAATTTAATTATCCAGGTCGTATGCCGTCTTCTGCTTG
DNA 2: CAAGCAGAAGACGGCATACGACCTGGATAATTAAATTAATTACCAGGCCCA
In the case of B2, the binding result in series [2] was “binds”.

B3: probe-dpy (dpy-1) (dsDNA)
DNA 1: ATCGTTAAATTACCGCAATTTGCATGTTCGTATGCCGTCTTCTGCTTG
DNA 2: CAAGCAGAAGACGGCATACGAACATGCAAATTGCGGTAATTTAACGAT
Regarding B3, the binding result in series [3] is recorded as “binds”.
